The results in this text go back to patent US6150090.

This data set has as its target IgNF-A (NF-A1), ubiquitous octamer-binding protein (Homo sapiens) (UniProt P14859). Kind of data set: EMSA. Particulars: affinity over heterologous plasmid DNA; poly(dI-dC) carrier; DNase I footprint -72 to -52. A general note: Mobility shift assays separate free from complexed probe on a gel.

Sequence of IgNF-A (NF-A1), ubiquitous octamer-binding protein (Homo sapiens) (P14859 whole entry): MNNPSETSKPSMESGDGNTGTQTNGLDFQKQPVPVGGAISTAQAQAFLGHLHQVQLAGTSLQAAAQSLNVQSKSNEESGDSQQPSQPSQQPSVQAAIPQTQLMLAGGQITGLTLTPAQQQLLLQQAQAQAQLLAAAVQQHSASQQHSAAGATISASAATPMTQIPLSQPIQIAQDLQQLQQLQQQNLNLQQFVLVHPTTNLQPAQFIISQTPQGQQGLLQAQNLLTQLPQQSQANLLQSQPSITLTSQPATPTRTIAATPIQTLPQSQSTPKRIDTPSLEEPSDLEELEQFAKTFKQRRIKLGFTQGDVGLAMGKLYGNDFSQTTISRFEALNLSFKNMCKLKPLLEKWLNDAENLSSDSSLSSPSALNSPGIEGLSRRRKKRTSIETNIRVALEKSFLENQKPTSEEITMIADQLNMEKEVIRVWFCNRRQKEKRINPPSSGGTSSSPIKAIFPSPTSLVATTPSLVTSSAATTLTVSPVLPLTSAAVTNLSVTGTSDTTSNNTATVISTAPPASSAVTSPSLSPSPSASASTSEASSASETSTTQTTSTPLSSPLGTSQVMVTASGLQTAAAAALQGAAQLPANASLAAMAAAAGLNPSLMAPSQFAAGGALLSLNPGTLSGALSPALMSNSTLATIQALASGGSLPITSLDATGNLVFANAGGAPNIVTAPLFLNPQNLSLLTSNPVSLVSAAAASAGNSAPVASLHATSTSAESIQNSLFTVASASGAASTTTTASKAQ

Consider “MOPC41 V kappa promoter PvuII-SfaNI fragment”, for which the binding signal is > 10000 fold.
